Legend:
NOX (NADH oxidase) = NOX (NADH oxidase) (Gluconobacter thailandicus, UniProt A0ABQ0IUG6); experiment: NOX activity: NADH/NADPH and flavin coenzyme specificity; assay type: biochemical, Gluconobacter oxydans IFO 3255; conditions: flavin 0 to 300 μM, FIG. 19
Method: The change in absorbance in the first minute was taken as an initial rate, and the activity was calculated therefrom. The experimental group without the enzyme source was used as a blank. […] The measurement was taken three consecutive times. Their mean value was taken and is shown in the figure with the standard deviation.
The concentration of flavin in the reaction solution was 0 to 300 μM, and the others were adjusted to standard conditions.
The Km value for the substrate was calculated by measuring the activity with a variety of substrate concentrations and drawing a Lineweaver-Burk plot of the results.

[1] = tested on: NADH oxidase activity in cell free extract of G. oxydans IFO 3255 sldA:Kmr mutant strain; experiment: NADH oxidation activity in acetobacterium cell-free extract; assay type: biochemical, Gluconobacter oxydans IFO 3255 sldA:Kmr; conditions: pH 8.0, 0.03 mM FAD
Excerpt: The group without the extract was used as a control.

FcDH = FcDH (Gluconobacter thailandicus, UniProt A0ABQ0IZX0); experiment: NAD and NADP specificity of FcDH; assay type: biochemical, Gluconobacter oxydans IFO 3255; conditions: data not shown
Method: The measurement was started when NAD was added. The change in absorbance in the first minute was taken as the initial rate, and the activity was calculated therefrom. […] The measurement was performed consecutively three times. Their mean value was taken and is shown in the figure with the standard deviation.
Since FcDH uses NAD as a coenzyme, the availability of NAD and NADP was measured. The activity was measured by adding NAD or NADP at various concentrations under standard conditions. The Km value for each coenzyme was calculated by drawing a Lineweaver-Burk plot of the results (FIG. 14 (B)).

[2] = substrate: C[C@H](O)[C@@H](O)[C@@H](O)[C@H](O)CO; experiment: purified protein, by the assay type; conditions: other: purified FcDH, substrate; Lineweaver-Burk plot; pH 9.5; 30.0 °C
[3] = substrate: OC[C@@H](O)C(O)[C@H](O)CO; experiment: purified protein, by the assay type; conditions: other: purified FcDH, substrate; Lineweaver-Burk plot; pH 9.5; 30.0 °C
[4] = substrate: OC[C@@H](O)[C@@H](O)[C@@H](O)CO; experiment: purified protein, by the assay type; conditions: other: purified FcDH, substrate; Lineweaver-Burk plot; pH 9.5; 30.0 °C
[5] = substrate: OC[C@@H](O)[C@H](O)[C@@H](O)CO; experiment: purified protein, by the assay type; conditions: other: purified FcDH, substrate; Lineweaver-Burk plot; pH 9.5; 30.0 °C
[6] = substrate: OC[C@@H](O)[C@@H](O)[C@H](O)[C@@H](O)CO; experiment: Substrate specificity of purified FcDH (kcat, Km by Lineweaver-Burk plot); assay type: biochemical, Gluconobacter oxydans IFO 3255; conditions: other: purified FcDH, pH 9.5, 30.0 °C
Method: (§1) The measurement was started when NAD was added. […] The measurement was performed consecutively three times.
(§2) Values of kcat and Km for each substrate were obtained by measuring the initial rate of the reaction with various substrate concentrations and drawing a Lineweaver-Burk plot of the results.
(§3) Lineweaver-Burk plots of the results in (A) and (B) are shown in FIG. 12 (C) and (D), respectively. The Km and kcat values were calculated from the range in which substrate inhibition was not observed, i.e., from a straight line represented by a broken line in FIG. 12 (C) and (D).

[7] = substrate: OC[C@@H](O)[C@@H](O)[C@H](O)[C@H](O)CO; experiment: as above; assay type: biochemical, Gluconobacter oxydans IFO 3255; conditions: other: purified FcDH, pH 9.5, 30.0 °C
Method: as §1, §2, §3

[8] = substrate: OC[C@@H](O)[C@H](O)[C@H](O)[C@@H](O)CO; experiment: as above; assay type: biochemical, Gluconobacter oxydans IFO 3255; conditions: other: purified FcDH, pH 9.5, 30.0 °C
Method: as §1, §2, §3

NOX (NADH oxidase), sequence (A0ABQ0IUG6 entry or part of it): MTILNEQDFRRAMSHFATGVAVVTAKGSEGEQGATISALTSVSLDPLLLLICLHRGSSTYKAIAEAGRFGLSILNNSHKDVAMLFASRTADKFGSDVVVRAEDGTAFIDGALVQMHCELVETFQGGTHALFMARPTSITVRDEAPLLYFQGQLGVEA

## Cc1cc2nc3c(=O)[nH]c(=O)nc-3n(C[C@H](O)[C@H](O)[C@H](O)COP(=O)(O)OP(=O)(O)OC[C@H]3O[C@@H](n4cnc5c(N)ncnc54)[C@H](O)[C@@H]3O)c2cc1C [FAD]
NOX (NADH oxidase)
  NOX activation effect of flavin coenzyme: NOX activation effect was observed
[1]
  effect of FAD addition on NADH oxidation activity: facilitated this activity

## NC(=O)c1ccc[n+]([C@H]2O[C@@H](COP(=O)([O-])OP(=O)(O)OC[C@H]3O[C@@H](n4cnc5c(N)ncnc54)[C@H](OP(=O)(O)O)[C@@H]3O)[C@H](O)[C@@H]2O)c1 [NADP]
FcDH
  FcDH activity with NADP as the coenzyme: no significant activity

B1: FcDH (L-fuculose-producing L-fucitol dehydrogenase) (Gluconobacter thailandicus NBRC 3257) (protein)
chain: MYMEKLRLDGRTAVVTGGAQNIGLACVTALAEAGARVVIADLDEAMAAQSAEELCAEGLDVRSIRMDVTSMENVQAAIKTLHEQEGHLDILVACAGICISEVKAEDMTEGQWLKQVDINLNGMFRCCQAVGRIMLEQKKGAIVAIGSMSGQIVNRPQQQAAYNASKAGVHQYIRSLAAEWAPYGIRANAVAPTYIETTLTRFGMEKPELYDAWIAGTPMGRVGQPDEVASVVHFLASDAASLMTGSIVNVDAGFTVW
[2]
  Km: 31.9 mM
[3]
  Km: 1.3 mM
[4]
  Km: 20.4 mM
[5]
  Km: 31.9 mM
[6]
  Km: 22.4 mM
[7]
  Km: 30.2 mM
[8]
  Km: 30.5 mM

From patent US7575910B2, “Method for producing L-fuculose and method for producing L-fucose” (priority 2004, dated 2009)
